Blank lines part the entries; values can stand above or below the binder they belong to.
Target: T1, MukB^K1114E (Escherichia coli, UniProt P22523 1-1486, K1114E)
T1 construct: E. coli MukB with K1114E; Mutant of the whole MukB-His as far as the text tells; source: E. coli FL01 (mukB 3xFLAG C3013I), purified (TALON, HiTrap Heparin, Superdex 200); not shown: His tag, C-terminal, kept
T1 sequence (looked up): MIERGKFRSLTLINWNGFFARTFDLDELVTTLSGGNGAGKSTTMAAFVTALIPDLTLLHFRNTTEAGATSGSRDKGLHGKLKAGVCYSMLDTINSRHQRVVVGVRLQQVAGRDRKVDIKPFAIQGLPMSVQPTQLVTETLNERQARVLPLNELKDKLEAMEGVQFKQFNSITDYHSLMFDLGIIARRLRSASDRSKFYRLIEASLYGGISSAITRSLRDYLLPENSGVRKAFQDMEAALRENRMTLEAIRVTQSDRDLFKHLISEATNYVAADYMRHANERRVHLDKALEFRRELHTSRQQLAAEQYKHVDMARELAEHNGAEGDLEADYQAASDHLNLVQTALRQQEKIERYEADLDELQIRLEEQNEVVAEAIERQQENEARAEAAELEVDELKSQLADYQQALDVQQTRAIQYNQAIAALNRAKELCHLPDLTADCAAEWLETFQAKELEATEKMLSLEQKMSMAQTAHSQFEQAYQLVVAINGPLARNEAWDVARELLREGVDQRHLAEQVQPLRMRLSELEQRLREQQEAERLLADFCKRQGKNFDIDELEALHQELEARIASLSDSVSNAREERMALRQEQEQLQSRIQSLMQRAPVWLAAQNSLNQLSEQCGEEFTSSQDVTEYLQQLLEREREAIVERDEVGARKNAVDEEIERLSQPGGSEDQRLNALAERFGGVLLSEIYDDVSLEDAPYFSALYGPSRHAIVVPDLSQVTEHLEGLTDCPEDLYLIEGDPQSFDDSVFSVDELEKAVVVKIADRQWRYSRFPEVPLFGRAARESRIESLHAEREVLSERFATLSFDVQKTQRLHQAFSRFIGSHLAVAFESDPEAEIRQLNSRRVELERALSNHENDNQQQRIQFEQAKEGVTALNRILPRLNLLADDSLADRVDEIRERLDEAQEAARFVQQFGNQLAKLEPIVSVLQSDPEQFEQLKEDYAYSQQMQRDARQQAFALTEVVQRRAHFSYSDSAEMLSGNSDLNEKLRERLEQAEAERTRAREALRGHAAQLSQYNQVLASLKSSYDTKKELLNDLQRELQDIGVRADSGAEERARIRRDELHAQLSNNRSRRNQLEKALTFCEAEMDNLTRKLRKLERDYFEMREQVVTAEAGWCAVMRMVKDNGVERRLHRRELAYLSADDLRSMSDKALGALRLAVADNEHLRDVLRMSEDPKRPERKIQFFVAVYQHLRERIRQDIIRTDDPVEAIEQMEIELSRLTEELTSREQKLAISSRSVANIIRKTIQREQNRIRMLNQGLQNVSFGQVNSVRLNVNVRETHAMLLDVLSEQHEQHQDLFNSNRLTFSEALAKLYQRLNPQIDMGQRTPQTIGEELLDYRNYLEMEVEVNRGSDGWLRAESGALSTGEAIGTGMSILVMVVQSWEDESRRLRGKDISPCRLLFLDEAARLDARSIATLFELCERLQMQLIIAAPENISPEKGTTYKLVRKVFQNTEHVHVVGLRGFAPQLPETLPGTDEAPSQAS
Test: native gel or EMSA; BN-PAGE; MukB or MukB^HN (0-4.5 μM) with MukF (1.5 μM), MukE (3 μM) and AcpP as indicated or none; 1 mM DTT, 1 mM MgCl2, 30 min at 22 °C; 3-12% native Bis-Tris gels; AMPPNP in some samples
Settings: both partners purified

binding result: binds
B1: MukE (MukE-His) (natural protein, Escherichia coli, UniProt P22524 1-234, looked up)
chain: MSSTNIEQVMPVKLAQALANPLFPALDSALRSGRHIGLDELDNHAFLMDFQEYLEEFYARYNVELIRAPEGFFYLRPRSTTLIPRSVLSELDMMVGKILCYLYLSPERLANEGIFTQQELYDELLTLADEAKLLKLVNNRSTGSDVDRQKLQEKVRSSLNRLRRLGMVWFMGHDSSKFRITESVFRFGADVRAGDDPREAQRRLIRDGEAMPIENHLQLNDETEENQPDSGEEE
notes: MukE, the KITE protein of Escherichia coli MukBEF; The end of the tag is read from the printed name 'MukE-His'; also called KITE protein MukE; source: E. coli C3013I (NEB), pET vector, purified (TALON, HiTrap DEAE FF, Superdex 200)

binding result: binds
B2: MukF (His-MukF) (natural protein, Escherichia coli, UniProt P60293 1-440, looked up)
chain: MSEFSQTVPELVAWARKNDFSISLPVDRLSFLLAVATLNGERLDGEMSEGELVDAFRHVSDAFEQTSETIGVRANNAINDMVRQRLLNRFTSEQAEGNAIYRLTPLGIGITDYYIRQREFSTLRLSMQLSIVAGELKRAADAAEEGGDEFHWHRNVYAPLKYSVAEIFDSIDLTQRLMDEQQQQVKDDIAQLLNKDWRAAISSCELLLSETSGTLRELQDTLEAAGDKLQANLLRIQDATMTHDDLHFVDRLVFDLQSKLDRIISWGQQSIDLWIGYDRHVHKFIRTAIDMDKNRVFAQRLRQSVQTYFDEPWALTYANADRLLDMRDEEMALRDEEVTGELPEDLEYEEFNEIREQLAAIIEEQLAVYKTRQVPLDLGLVVREYLSQYPRARHFDVARIVIDQAVRLGVAQADFTGLPAKWQPINDYGAKVQAHVIDKY
notes: MukF, the kleisin of Escherichia coli MukBEF; The end of the tag is read from the printed name 'His-MukF'; also called kleisin MukF; source: E. coli C3013I (NEB), pET vector, purified (TALON, HiTrap DEAE FF, Superdex 200)

Reference: PMC8602292, “Acyl carrier protein promotes MukBEF action in Escherichia coli chromosome organization-segregation” (Nature Communications, 2021)
